{
  "source": "patent US20140289906A1",
  "about": "“Compositions Having Dicamba Decarboxylase Activity and Methods of Use” (priority 2013, published 2014)",
  "molecules": {"B1": {"name": "34 (protein)", "chain": "MAQGKIGLEEHFAIPETLNDSAGFVPGDYWKELSRRLLDIQDDRLRQMDENGMEMMLLSLNAPAVQAVPDRKQACELAVRANDFLAEQVSRRPDRFQALAALPLQDPDFATVELTRCVNELGMRGALVNGFSQIDTPDNVVYYDAPQYASFWAAVEKLDVPFYLHPRNPIASWAQIYDGHPWLLGPTWAFGQETAVHALRLMASGLFDRHPALQIVLGHLGEGLPYSLWRIDNRNAWVKAPKTHPAKKTFRHYFQQNFHLTTSGNFHNQTLIDAILEIGADRILFSTDWPFENIDHAAKWFDSASISEADRTKIGRTNAMKLFKLVA", "modifications": "Cupriavidus necator"}, "B2": {"name": "35 (protein)", "chain": "MAFKASRKIALEEHFAIDATVQDSAGFVPPSYWAELKRRLLDIHDRRIDEMDRNGVELMVLSLNAPTVQAVPNIKDAYDLSRRANDFLAEQIVKRPERFKGFAALPMQSPDLAARELERCVKELNFVGALVNGFSQVEESGTALYYDLPQYRQFWSVVQALDVPFYLHPRNPLPAHAPIYEGHPWLLGPTWAFGQETAVHALRLMGSGLFDEYPELKIILGHMGEGLPYSMWRIDNRNAWVETQPNYPAKKRIAEYFHKNFWLTTSGNFRTQTLIDAMLEIGSDRILFSTDWPFENVDHAAQWFDDAAISENDRIKIARTNAARLFKLEP", "modifications": "Burkholderia sp"}, "B3": {"name": "30 (protein)", "chain": "MARGKIALEEHVSTPENNRLWDSTGEANRNGSEYMQDVERRLLDRSIQLEEMAQRNIDHVILSLTSPGAQSILDKAKAVSFARDTNDFIVDNYVKPNPDKFSAFATLALQNPEAAAEELERAVKKLGMKGALINGYTNVKDSEHGLYLDDESMLVFWDKVNELNVPVYLHPREPLEGPARGIYTGYESLIGSAWGFAQETAVHAIRLMMSGLFDRYPNLNLVLGHLGEGLVHMLPRTQHRLYRQRFGCGLGKAEKPLMHYLQNNFIVTTSGHFNTHSLNNAIEVMGADRVMFSVDYPYEDIHQACDWFDPLEMDEGLKEKIAWGNASRVFNIK", "modifications": "Enterobacter aerogenes"}, "B4": {"name": "31 (protein, listed as Agrobacterium sp.)", "chain": "MAQGKVALEEHFAIPETLQDSAGFVPGDYWKELQHRLLDIQDTRLKLMDAHGIETMILSLNAPAVQAIPDKTKAIEIARRANDVLAEECAKRPDRFLAFAALPLQDPDAATEELQRCVNDLGFVGALVNGFSQEGDGQTPLYYDLPQYRPFWGEVEKLDVPFYLHPRNPLPQDSRIYDGHPWLLGPTWAFAQETAVHALRLMASGLFDEHPRLNIILGHMGEGLPYMMWRIDHRNAWVKLPPRYPAKRRFMDYFNENFHITTSGNFRTQTLIDAILEIGADRILFSTDWPFENIDHASDWFNATSIAEADRVKIGRTNARRLFKLDGA"}, "B5": {"name": "36 (protein, listed as Agrobacterium sp.)", "chain": "B4 chain with K31T, V84A, D94N, E112Q, T139I, M251V, N302H, A328R"}, "B6": {"name": "33 (protein, listed as Rhizobium leguminosarum)", "chain": "MAQGKIALEEHFAIPETLQDSAGFVPGDYWKELSARLLDIQEKRLRLMDAHGIEKMILSLNAPAVQAIPDRAKALEISRRANDFLAEQCVKNPNRFLGFAALPLQDPDAATQELQRCVTTMGFVGALVNGFSQEGDGTTPLYYDLPQYRSFWAEVEKLNVPFYLHPRNPLPQDSRIYAGHSWLMGPTWAFAQETAVHALRLMGSGLFDEHPALRIIVGHMGEGLPYMMWRIDNRNAWVKVEKSYPAKRPIADYFNENFYITTSGNFRTQSLIDAMLEIGADRILFSADWPFENIDHAANWFDSATISEADRLKIGRTNAVSLFKLDR"}, "B7": {"name": "43 (protein, listed as Rhizobium leguminosarum)", "chain": "B6 chain with K31T, E42D, A50T, R71K, L75V, S150P, N159D, I294V"}, "B8": {"name": "44 (protein, listed as Mycobacterium avium)", "chain": "MARIITVEEHFQHPEVSARVAELTGPAVEGLAEFGNAFSLDPDSTARLGGNRLAHMDQVGIDVQVVSHGNGSPGTLQHPEAVELCRRVNNDLAAQIAENPDRFRGFATLPLYDPAAAAEELRRCVGDLGFVGALIAGSYDGLFLDDERFDPILTAAEAVDFPIYVHPGLPEAPVSQRYYAGSWPASVHMMFSGPAFGWHAEAGIHIVRLILSGALDRHPTLKLLSGHWGELAAFYLERLDETLGLLPTGLERAPSDYYRQQVWITPSGMYNQNQLNFMTAELGAQRIIYSEDFPYVVRDNVSTFLEQAGLSEADTHAIAHTNAEALLRI"}, "B9": {"name": "28 (protein, listed as Sphingomonas paucimobilis)", "chain": "MARLIATEEAVTFQPVVDALRAHSRTDDASLDMILVRDVYGDEPARPAMIGRLSDVTGERLAEMDSNGVDMHLLSLTAPGVQMFDAETGTRLARIANDLMAQTVAANPTRFAGLGTFAPQDPASAAREIERVATQLRLNGLVINSHTNDLYYDDPFFHPVFEAIEASGLALYIHPRAPSKQIDRAFRDYGMNSAIWGYGIETSTNAVRMILSGLFDRFPRLKIVLGHMGEAIPFWLWRLDYMHGNATTFGGAPKLKLKPSEYFRRNFAITTSGVESHAALRYSIEVLGPENVMWAIDYPYQPMAPAVQFIRTAPIPEDVKAMVAGGNAARIFRIT"}},
  "experiment": "14C assay: 14CO2 capture from [14C]-carboxyl-labeled dicamba with IPTG-induced recombinant E. coli cells",
  "conditions": "for Dicamba Decarboxylase Activity: IPTG-induced recombinant E. coli cells, 14CO2 from [14C]-carboxyl-labeled dicamba; for decarboxylation activity of dicamba: among the 108 sequences tested, recombinant E. coli cell assay; for Enzymatic Detection level: dicamba decarboxylation activity",
  "note": "Residue numbers refer to the chain shown, from its start.",
  "data": [
    {"molecule": "B1", "values": [
      {"measurement": "Dicamba Decarboxylase Activity", "result": "High"},
      {"measurement": "decarboxylation activity of dicamba", "result": "showed decarboxylation activity of dicamba"},
      {"measurement": "Enzymatic Detection level", "result": "High"}
    ]},
    {"molecule": "B2", "values": [
      {"measurement": "Dicamba Decarboxylase Activity", "result": "High"},
      {"measurement": "decarboxylation activity of dicamba", "result": "showed decarboxylation activity of dicamba"},
      {"measurement": "Enzymatic Detection level", "result": "High"}
    ]},
    {"molecule": "B3", "values": [
      {"measurement": "Dicamba Decarboxylase Activity", "result": "High"},
      {"measurement": "decarboxylation activity of dicamba", "result": "showed decarboxylation activity of dicamba"},
      {"measurement": "Enzymatic Detection level", "result": "High"}
    ]},
    {"molecule": "B4", "values": [
      {"measurement": "Dicamba Decarboxylase Activity", "result": "High"},
      {"measurement": "decarboxylation activity of dicamba", "result": "showed decarboxylation activity of dicamba"},
      {"measurement": "Enzymatic Detection level", "result": "High"}
    ]},
    {"molecule": "B5", "values": [
      {"measurement": "Dicamba Decarboxylase Activity", "result": "High"},
      {"measurement": "decarboxylation activity of dicamba", "result": "showed decarboxylation activity of dicamba"},
      {"measurement": "Enzymatic Detection level", "result": "High"}
    ]},
    {"molecule": "B6", "values": [
      {"measurement": "Dicamba Decarboxylase Activity", "result": "High"},
      {"measurement": "decarboxylation activity of dicamba", "result": "showed decarboxylation activity of dicamba"},
      {"measurement": "Enzymatic Detection level", "result": "High"}
    ]},
    {"molecule": "B7", "values": [
      {"measurement": "Dicamba Decarboxylase Activity", "result": "High"},
      {"measurement": "decarboxylation activity of dicamba", "result": "showed decarboxylation activity of dicamba"},
      {"measurement": "Enzymatic Detection level", "result": "High"}
    ]},
    {"molecule": "B8", "values": [
      {"measurement": "Dicamba Decarboxylase Activity", "result": "High"},
      {"measurement": "decarboxylation activity of dicamba", "result": "showed decarboxylation activity of dicamba"},
      {"measurement": "Enzymatic Detection level", "result": "High"}
    ]},
    {"molecule": "B9", "values": [
      {"measurement": "Dicamba Decarboxylase Activity", "result": "High"},
      {"measurement": "decarboxylation activity of dicamba", "result": "showed decarboxylation activity of dicamba"},
      {"measurement": "Enzymatic Detection level", "result": "High"}
    ]}
  ]
}
